Data: article PMC12486813

Molecular target: FcγRI (CD64) (UniProt P12314)
Assay: BLI; binding-dissociation kinetics of FcγRI (CD64) with the antibody; who was immobilised not stated for this experiment; KD is the average of two independent experiments

UniProt P12314, sequence (P12314 16-374): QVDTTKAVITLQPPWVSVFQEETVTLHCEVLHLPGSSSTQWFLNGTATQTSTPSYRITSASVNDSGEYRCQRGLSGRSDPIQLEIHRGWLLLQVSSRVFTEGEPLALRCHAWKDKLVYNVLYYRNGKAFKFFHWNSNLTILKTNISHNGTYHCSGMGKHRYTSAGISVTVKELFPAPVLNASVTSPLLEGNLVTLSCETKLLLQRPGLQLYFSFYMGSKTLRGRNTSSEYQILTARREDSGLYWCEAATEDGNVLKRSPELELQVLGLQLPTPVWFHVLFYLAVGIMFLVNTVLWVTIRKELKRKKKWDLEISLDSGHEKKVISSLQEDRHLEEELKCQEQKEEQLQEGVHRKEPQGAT

Substance 5C8 (LALA) (antibody) has a Kd of 4.82 µM.
